Measured values reported in patent US20110294748A1 (Janssen / Centocor, published 2011).

Assays:
[1] = biological target: T1, soluble IGF1R (sIGF1R), extracellular domain of human insulin-like growth factor 1 receptor, carboxy-terminal … (human, UniProt P08069 31-932); assay: ELISA, culture supernatant on 2 µg/ml coated sIGF1R, Attophos detection
T1 construct: Bought from R&D Systems; GenBank NP-000866 is printed for the whole receptor; also called IFG1R
Procedure: The binding of purified peptide-AP fusion proteins to sIGF1R was assessed using ELISA against immobilized sIGF1R. Briefly, bacteria transformed with each peptide-AP fusion expression vector were grown overnight and the following day the cultures were clarified by centrifugation at 4,500 rpm, 4° C. The supernatants were collected and 75 μl of each supernatant was assayed for binding to 2 μg/ml sIGF1R immobilized on ELISA plates. The bound peptides were detected using the Attophos Substrate (Roche, Indianapolis, Ind.) following the manufacturer's recommendation and read using a Molecular Devices M5 plate reader.

[2] = biological target: T1, soluble IGF1R (sIGF1R), extracellular …; assay: ELISA, serially diluted PG-peptide fusion on coated sIGF1R
Procedure: Relative binding affinities of the PG-peptide fusions for sIGF1R were measured using ELISA. The Kds were determined using GraphPad Prism 4 software with a one site binding equation. 100 μl of 2 μg/ml sIGF1R(R&D Systems, Minneapolis, Minn.) in Dulbecco's Phosphate Buffer Saline (DPBS (−/−)) was coated onto a 96 well Black Maxisorp plates (Nunc, Rochester, N.Y.) overnight at 4° C. The plates were washed with TBST and the wells blocked with 200 μl/well Starting Block T20 (TBS) (Pierce, Rockford, Ill.) for 1 hr, room temperature with 300 rpm shaking. 75 μl/well of purified, serially diluted PG-peptide fusions, starting concentration 40 μM, was added into the wells and incubated for 1 h, room temperature with 300 rpm mixing; the volume was brought up to 100 μl with Starting Block T20. The plates were washed 3× with TBST and then probed with 100 μl/well Peroxidase labeled-Rabbit antibody (1:5000) (Rockland, Gilbertsville, Pa.), washed, and the signal was detected using 100 μl/well POD substrate (Roche, Indianapolis, Ind.). Chemiluminescence was detected using a Molecular Devices M5 plate reader.
The fusion protein with peptide clone 17 was unique in its binding profile in that the binding curve was bellshaped. […]

Binder	binding result [1]	binding result [2]
peptide-Alkaline phosphatase-His6 fusion protein of clone 16 (other, Tested as bacterial culture supernatant; also called peptide-AP fusion clone 16) AGCPSPMPPVDPGFYSAIVQLCRETPEMPVLENRAAQGDITTPGGARRLTGDQTAALRDSLSDKPAKNIILLIGDGMGDSEITAARNYAEGAGGFFKGIDALPLTGQYTHYALNKKTGKPDYVTDSAASATAWSTGVKTYNGALGVDIHEKDHPTILEMAKAAGLATGNVSTAELQGATPAALVAHVTSRKCYGPSATSEKCPGNALEKGGKGSITEQLLNARADVTLGGGAKTFAETATAGEWQGKTLREQAQTRGYQLVSDAASLNSVTEANQQKPLLGLFADGNMPVRWLGPKATYHGNIDKPAVTCTPNPQRNDSVPTLAQMTDKAIELLSKNEKGFFLQVEGASIDKQNHAANPCGQIGETVDLDEAVQRALEFAKKEGNTLVIVTADHAHASQIVAPDTKAPGLTQALNTKDGAVMVMSYGNSEEDSQEHTGSQLRIAAYGPHAANVVGLTDQTDLFYTMKAALGLKVPGGSGGGSGGGSGGGSGTPEMPVLENRAAQGDITTPGGARRLTGDQTAALRDSLSDKPAKNIILLIGDGMGDSEITAARNYAEGAGGFFKGIDALPLTGQYTHYALNKKTGKPDYVTDSAASATAWSTGVKTYNGALGVDIHEKDHPTILEMAKAAGLATGNVSTAELQGATPAALVAHVTSRKCYGPSATSEKCPGNALEKGGKGSITEQLLNARADVTLGGGAKTFAETATAGEWQGKTLREQAQTRGYQLVSDAASLNSVTEANQQKPLLGLFADGNMPVRWLGPKATYHGNIDKPAVTCTPNPQRNDSVPTLAQMTDKAIELLSKNEKGFFLQVEGASIDKQNHAANPCGQIGETVDLDEAVQRALEFAKKEGNTLVIVTADHAHASQIVAPDTKAPGLTQALNTKDGAVMVMSYGNSEEDSQEHTGSQLRIAAYGPHAANVVGLTDQTDLFYTMKAALGLKVPGNSHHHHHH	binds	–
peptide-Alkaline phosphatase-His6 fusion protein of clone 12 (other, Tested as bacterial culture supernatant; also called peptide-AP fusion clone 12) SNCPPLDMRLTELCVMTPEMPVLENRAAQGDITTPGGARRLTGDQTAALRDSLSDKPAKNIILLIGDGMGDSEITAARNYAEGAGGFFKGIDALPLTGQYTHYALNKKTGKPDYVTDSAASATAWSTGVKTYNGALGVDIHEKDHPTILEMAKAAGLATGNVSTAELQGATPAALVAHVTSRKCYGPSATSEKCPGNALEKGGKGSITEQLLNARADVTLGGGAKTFAETATAGEWQGKTLREQAQTRGYQLVSDAASLNSVTEANQQKPLLGLFADGNMPVRWLGPKATYHGNIDKPAVTCTPNPQRNDSVPTLAQMTDKAIELLSKNEKGFFLQVEGASIDKQNHAANPCGQIGETVDLDEAVQRALEFAKKEGNTLVIVTADHAHASQIVAPDTKAPGLTQALNTKDGAVMVMSYGNSEEDSQEHTGSQLRIAAYGPHAANVVGLTDQTDLFYTMKAALGLKVPGGSGGGSGGGSGGGSGTPEMPVLENRAAQGDITTPGGARRLTGDQTAALRDSLSDKPAKNIILLIGDGMGDSEITAARNYAEGAGGFFKGIDALPLTGQYTHYALNKKTGKPDYVTDSAASATAWSTGVKTYNGALGVDIHEKDHPTILEMAKAAGLATGNVSTAELQGATPAALVAHVTSRKCYGPSATSEKCPGNALEKGGKGSITEQLLNARADVTLGGGAKTFAETATAGEWQGKTLREQAQTRGYQLVSDAASLNSVTEANQQKPLLGLFADGNMPVRWLGPKATYHGNIDKPAVTCTPNPQRNDSVPTLAQMTDKAIELLSKNEKGFFLQVEGASIDKQNHAANPCGQIGETVDLDEAVQRALEFAKKEGNTLVIVTADHAHASQIVAPDTKAPGLTQALNTKDGAVMVMSYGNSEEDSQEHTGSQLRIAAYGPHAANVVGLTDQTDLFYTMKAALGLKVPGNSHHHHHH	binds	–
PG-peptide fusion of clone 17 (protein G IgG domain with peptide SEQ ID NO: 13 at its C-terminus) (other, also called PG-peptide fusion clone 17; fusion protein with peptide clone 17) YKLILNGKTLKGETTTEAVDAATAEKVFKQYANDNGVDGEWTYDDATKTFTVTEDDIDEFLHQLHNLVNNVH	–	binds

The next lines start with the values.

binding result [1]	binding result [2]	Binder
binds	–	peptide-Alkaline phosphatase-His6 fusion protein of clone 14 (other, Tested as bacterial culture supernatant; also called peptide-AP fusion clone 14) VECDTPSITFSPGLEALFWNTCSPTPEMPVLENRAAQGDITTPGGARRLTGDQTAALRDSLSDKPAKNIILLIGDGMGDSEITAARNYAEGAGGFFKGIDALPLTGQYTHYALNKKTGKPDYVTDSAASATAWSTGVKTYNGALGVDIHEKDHPTILEMAKAAGLATGNVSTAELQGATPAALVAHVTSRKCYGPSATSEKCPGNALEKGGKGSITEQLLNARADVTLGGGAKTFAETATAGEWQGKTLREQAQTRGYQLVSDAASLNSVTEANQQKPLLGLFADGNMPVRWLGPKATYHGNIDKPAVTCTPNPQRNDSVPTLAQMTDKAIELLSKNEKGFFLQVEGASIDKQNHAANPCGQIGETVDLDEAVQRALEFAKKEGNTLVIVTADHAHASQIVAPDTKAPGLTQALNTKDGAVMVMSYGNSEEDSQEHTGSQLRIAAYGPHAANVVGLTDQTDLFYTMKAALGLKVPGGSGGGSGGGSGGGSGTPEMPVLENRAAQGDITTPGGARRLTGDQTAALRDSLSDKPAKNIILLIGDGMGDSEITAARNYAEGAGGFFKGIDALPLTGQYTHYALNKKTGKPDYVTDSAASATAWSTGVKTYNGALGVDIHEKDHPTILEMAKAAGLATGNVSTAELQGATPAALVAHVTSRKCYGPSATSEKCPGNALEKGGKGSITEQLLNARADVTLGGGAKTFAETATAGEWQGKTLREQAQTRGYQLVSDAASLNSVTEANQQKPLLGLFADGNMPVRWLGPKATYHGNIDKPAVTCTPNPQRNDSVPTLAQMTDKAIELLSKNEKGFFLQVEGASIDKQNHAANPCGQIGETVDLDEAVQRALEFAKKEGNTLVIVTADHAHASQIVAPDTKAPGLTQALNTKDGAVMVMSYGNSEEDSQEHTGSQLRIAAYGPHAANVVGLTDQTDLFYTMKAALGLKVPGNSHHHHHH
binds	–	peptide-Alkaline phosphatase-His6 fusion protein of clone 17 (other, Tested as bacterial culture supernatant; also called peptide-AP fusion clone 17) DDIDEFLHQLHNLVNNVHTPEMPVLENRAAQGDITTPGGARRLTGDQTAALRDSLSDKPAKNIILLIGDGMGDSEITAARNYAEGAGGFFKGIDALPLTGQYTHYALNKKTGKPDYVTDSAASATAWSTGVKTYNGALGVDIHEKDHPTILEMAKAAGLATGNVSTAELQGATPAALVAHVTSRKCYGPSATSEKCPGNALEKGGKGSITEQLLNARADVTLGGGAKTFAETATAGEWQGKTLREQAQTRGYQLVSDAASLNSVTEANQQKPLLGLFADGNMPVRWLGPKATYHGNIDKPAVTCTPNPQRNDSVPTLAQMTDKAIELLSKNEKGFFLQVEGASIDKQNHAANPCGQIGETVDLDEAVQRALEFAKKEGNTLVIVTADHAHASQIVAPDTKAPGLTQALNTKDGAVMVMSYGNSEEDSQEHTGSQLRIAAYGPHAANVVGLTDQTDLFYTMKAALGLKVPGGSGGGSGGGSGGGSGTPEMPVLENRAAQGDITTPGGARRLTGDQTAALRDSLSDKPAKNIILLIGDGMGDSEITAARNYAEGAGGFFKGIDALPLTGQYTHYALNKKTGKPDYVTDSAASATAWSTGVKTYNGALGVDIHEKDHPTILEMAKAAGLATGNVSTAELQGATPAALVAHVTSRKCYGPSATSEKCPGNALEKGGKGSITEQLLNARADVTLGGGAKTFAETATAGEWQGKTLREQAQTRGYQLVSDAASLNSVTEANQQKPLLGLFADGNMPVRWLGPKATYHGNIDKPAVTCTPNPQRNDSVPTLAQMTDKAIELLSKNEKGFFLQVEGASIDKQNHAANPCGQIGETVDLDEAVQRALEFAKKEGNTLVIVTADHAHASQIVAPDTKAPGLTQALNTKDGAVMVMSYGNSEEDSQEHTGSQLRIAAYGPHAANVVGLTDQTDLFYTMKAALGLKVPGNSHHHHHH
